The values that follow come from paper PMC9317633, “Antifungal Effect of Penicillamine Due to the Selective Targeting of L-Homoserine O-Acetyltransferase” (International Journal of Molecular Sciences, 2022).

Series [1] has as its target T1, CaMet2NHp (Candida albicans, UniProt Q5A948).
T1 construct: gene MET2; full length with N-terminal oligo-His tag (kept), ~45 kDa; E. coli Rosetta (DE3) pLysS; dimer only in model
T1 sequence (Q5A948 1-409): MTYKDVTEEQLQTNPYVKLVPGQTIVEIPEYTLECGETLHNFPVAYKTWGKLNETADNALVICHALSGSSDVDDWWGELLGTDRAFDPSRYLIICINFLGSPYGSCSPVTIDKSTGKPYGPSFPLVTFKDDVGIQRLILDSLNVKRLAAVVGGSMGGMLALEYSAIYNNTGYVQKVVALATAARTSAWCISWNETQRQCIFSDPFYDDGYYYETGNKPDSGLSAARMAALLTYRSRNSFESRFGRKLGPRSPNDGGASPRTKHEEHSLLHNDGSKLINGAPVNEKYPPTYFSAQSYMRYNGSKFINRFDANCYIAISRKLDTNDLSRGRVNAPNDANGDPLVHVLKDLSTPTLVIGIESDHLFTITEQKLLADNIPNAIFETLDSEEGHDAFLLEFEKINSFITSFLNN
Briefly: inhibition, DTNB end-point assay of CoA formed, […] nm. The settings on record: read-out: % inhibition at 25 mM. In kind it is biochemical.

Series [2] concerns the target T1, CaMet2NHp. The description is as above. Format: biochemical.
Substrate in series [3]: CC(=O)SCCNC(=O)CCNC(=O)[C@H](O)C(C)(C)COP(=O)(O)OP(=O)(O)OC[C@H]1O[C@@H](n2cnc3c(N)ncnc32)[C@H](O)[C@@H]1OP(=O)(O)O
Briefly: purified protein. As to conditions: 10 mM L-Hom, pH 8.0 phosphate, 100 mM NaCl, 1 mM EDTA, 37 °C. Format: biochemical, Candida albicans.

Substrate in series [4]: N[C@@H](CCO)C(=O)O
The series is described as follows: purified protein. Format: biochemical, Candida albicans. As to conditions: 3.5 mM AcCoA, pH 8.0 phosphate, 100 mM NaCl, 1 mM EDTA, 37 °C.

Consider `CSCC[C@H](N)C(=O)O` [L-Met], for which the inhibition at 25000 µM on CaMet2NHp [1] worked out at 17%.
On CaMet2NHp [2], `CC(C)(S)[C@@H](N)C(=O)O` [D-Pen] displayed an IC50 of about 2 mM.
On the same count and under the same terms, next, `CC(C)(S)[C@H](N)C(=O)O` [L-Pen]: about 2 mM.

B1: CaMet2p (Candida albicans SC5314) (protein)
chain: MTYKDVTEEQLQTNPYVKLVPGQTIVEIPEYTLECGETLHNFPVAYKTWGKLNETADNALVICHALSGSSDVDDWWGELLGTDRAFDPSRYLIICINFLGSPYGSCSPVTIDKSTGKPYGPSFPLVTFKDDVGIQRLILDSLNVKRLAAVVGGSMGGMLALEYSAIYNNTGYVQKVVALATAARTSAWCISWNETQRQCIFSDPFYDDGYYYETGNKPDSGLSAARMAALLTYRSRNSFESRFGRKLGPRSPNDGGASPRTKHEEHSLLHNDGSKLINGAPVNEKYPPTYFSAQSYMRYNGSKFINRFDANCYIAISRKLDTNDLSRGRVNAPNDANGDPLVHVLKDLSTPTLVIGIESDHLFTITEQKLLADNIPNAIFETLDSEEGHDAFLLEFEKINSFITSFLNN
notes: E. coli BL21 Star (DE3); dimer only in model
Turning to B1, in “purified protein [3]”, the Km came out at 906 ± 119 µM, the Vmax was found to be 20.1 µmol/min/mg, the kcat turned out to be 15.2 ± 0.572 s⁻¹ and the kcat/Km was 16800 M⁻¹ s⁻¹. In addition, in “purified protein [4]”, the Km worked out at 405 ± 50 µM, the Vmax stood at 17.1 µmol/min/mg, the kcat amounted to 13 ± 0.405 s⁻¹ and the kcat/Km amounted to 32100 M⁻¹ s⁻¹.

B2: CaMet2NHp (Candida albicans SC5314) (protein)
chain: MTYKDVTEEQLQTNPYVKLVPGQTIVEIPEYTLECGETLHNFPVAYKTWGKLNETADNALVICHALSGSSDVDDWWGELLGTDRAFDPSRYLIICINFLGSPYGSCSPVTIDKSTGKPYGPSFPLVTFKDDVGIQRLILDSLNVKRLAAVVGGSMGGMLALEYSAIYNNTGYVQKVVALATAARTSAWCISWNETQRQCIFSDPFYDDGYYYETGNKPDSGLSAARMAALLTYRSRNSFESRFGRKLGPRSPNDGGASPRTKHEEHSLLHNDGSKLINGAPVNEKYPPTYFSAQSYMRYNGSKFINRFDANCYIAISRKLDTNDLSRGRVNAPNDANGDPLVHVLKDLSTPTLVIGIESDHLFTITEQKLLADNIPNAIFETLDSEEGHDAFLLEFEKINSFITSFLNN
notes: full length with N-terminal oligo-His tag (kept), ~45 kDa; E. coli Rosetta (DE3) pLysS; dimer only in model
As to B2, in “purified protein [3]”, the Km is 1130 ± 150 µM, the Vmax came to 19.8 µmol/min/mg, the kcat came to 15 ± 0.635 s⁻¹ and the kcat/Km amounted to 13300 M⁻¹ s⁻¹. Also, in the series “purified protein [4]”, the Km stood at 578 ± 118 µM, the maximal velocity (Vmax) was 17.2 µmol/min/mg, the kcat worked out at 13.1 ± 0.723 s⁻¹ and the kcat/Km amounted to 22700 M⁻¹ s⁻¹.
